Laboratory results from publication PMC9210681.
Numbering of substitutions follows the chain as printed.

What was measured:
[1] = target: AtsR (NCgl0886), native protein as run on the size exclusion column (Corynebacterium glutamicum); test: not stated; reduced AtsR, Additional file 1 Fig. S10A (Purification of AtsR)
[2] = target: AtsR (NCgl0886), native protein as run on the size exclusion column (Corynebacterium glutamicum); test: SEC; Superdex 200 10/300 GL, 50 mM potassium phosphate pH 7.4, 0.15 M NaCl, calibrated with mass markers; native AtsR untreated; AtsR:C123SC187S reduced (20 µM protein with 50 mM DTT)
[3] = target: AtsR (NCgl0886), native protein as run on the size exclusion column (Corynebacterium glutamicum); test: SEC; Superdex 200 10/300 GL; AtsR incubated with an oxidant before the run (CHP in the text, H2O2 in the legend); two species, oxidized dimer and native dimer
[4] = tested on: T1, AtsR (NCgl0886) (Corynebacterium glutamicum (RES167 parental strain)), ORF:74efc9ce; test: EMSA; details: 10 mM Tris-HCl pH 7.4 (Fig. 6A legend: pH 8.0), 5 mM MgCl2, 50 mM KCl, 5% glycerol, 0.1% NP40, 1 ug poly(dI:dC), 1 mM DTT, 20 ul, 40 ng DNA, room temperature …
T1 sequence: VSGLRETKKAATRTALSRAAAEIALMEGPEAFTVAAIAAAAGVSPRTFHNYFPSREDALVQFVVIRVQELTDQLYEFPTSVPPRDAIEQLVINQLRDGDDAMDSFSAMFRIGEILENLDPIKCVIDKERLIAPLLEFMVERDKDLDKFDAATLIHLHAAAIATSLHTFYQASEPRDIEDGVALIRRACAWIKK

[5] = tested on: T2, AtsR:C123SC187S C123S;C188S (Corynebacterium glutamicum (RES167 parental strain)), ORF:74efc9ce; test: EMSA; details: 10 mM Tris-HCl pH 7.4 (Fig. 6A legend: pH 8.0), 5 mM MgCl2, 50 mM KCl, 5% glycerol, 0.1% NP40, 1 ug poly(dI:dC), 1 mM DTT, 20 ul, 40 ng DNA, room temperature …
T2 sequence: T1 sequence with C123S, C188S

[6] = target: His6-AtsR (Corynebacterium glutamicum); test: cross-linking; disulfide bond formed by oxidant: 20 µM protein with 5 mM H2O2 or 4 mM CHP for 30 min, boiled, 15% nonreducing SDS-PAGE, Coomassie stain
[7] = target: His-tag-free AtsR:C123SC187S (Corynebacterium glutamicum); test: SEC; Superdex 200 10/300 GL, 50 mM potassium phosphate pH 7.4, 0.15 M NaCl, calibrated with mass markers; native AtsR untreated; AtsR:C123SC187S reduced (20 µM protein with 50 mM DTT)
[8] = tested on: AtsR:C123SC187S (Corynebacterium glutamicum (RES167 parental strain)); test: EMSA; details: apparent KD; unit inferred, nM implied from AtsR; 10 mM Tris-HCl pH 7.4 (Fig. 6A legend: pH 8.0), 5 mM MgCl2, 50 mM KCl, 5% glycerol, 0.1% NP40, 1 ug poly(dI:dC), 1 mM DTT, 20 ul, 40 ng DNA, room temperature …
[9] = tested on: AtsR (NCgl0886) (Corynebacterium glutamicum (RES167 parental strain)); test: EMSA; details: apparent KD; 10 mM Tris-HCl pH 7.4 (Fig. 6A legend: pH 8.0), 5 mM MgCl2, 50 mM KCl, 5% glycerol, 0.1% NP40, 1 ug poly(dI:dC), 1 mM DTT, 20 ul, 40 ng DNA, room temperature …

Substance: AtsR (NCgl0886), native protein as run on the size exclusion column (natural protein)
- stoichiometry N [1]: 2
- stoichiometry N [2]: 2
- stoichiometry N [3]: 2

Substance: GCCCACAGCATAGAACTAAAACAGTATGCTTGTCCTGCTAAATGTGAATTTTTAAGAGATTCATCCCACACAATTACGAAAAAACCAGATTGCCCACAAATTAGTCTTCGAACTTTAATCAACACCACACCCAAAGCTAAACTTGCGCTCGTTGTGCAAAATTGCATTCAGGCTGAAAAATTCCTAAAGGGACTCCGTCCGAATAATTGGAAAGCCCAGAAGAACAGTCAAC (double strand) [Pncgl0887 (fragment A, 232 bp)]
- Kd [4]: 34 nM
- binding [4]: binds
- Kd [5]: 42 nM
- binding [5]: binds

Substance: GTGGGCAGCGGAATTTCCATACCTTTAAGGATATGCACCGGGGGAAACTATGGGGATTTTGGGGGAGGTTGTTACAAAACCATACGTCTGTGAAGATATGACGAGTGCATGCCCAAAATAATGCATAGGAAAAAGGAAGAGTTAACAATGCGTAAAGGAATTTCCCGCGTCCTCTCGGTAGCGGTTGCTAGTTCTATTGGATTCG (double strand) [Pncgl0884 (205 bp)]
- binding [4]: no binding

Substance: GTTGTAGACAACAGTCAGATCGCCGTCATCGTATTCATCAAGAATATTGGTGACCTTCTCACGATCCTCTGCGGATATATCCATGGCAGAATCTGCATCAAAAGTCATCGAGATGATGCCGGTAGTCTCATCTGCACTCAGTGGACTAATCGACTCAATATCTGCGGCGATCTTCTCCGCAGGTACACCCTGAGCCTCCAGGGCTGGGGTCATCTGAGCAGCCACACCCTG (double strand) [ncgl0887 coding region control (232 bp)]
- binding [4]: no binding

Substance: His6-AtsR (natural protein)
- stoichiometry N [6]: 2

Substance: His-tag-free AtsR:C123SC187S (natural protein)
- stoichiometry N [7]: 2

Substance: Pncgl0887 (fragment A, 232 bp)
- Kd [8]: 42 nM
- Kd [9]: 34 nM
